From PMC4940160, “Architecture and RNA binding of the human negative elongation factor”

Legend:
NELF-B;NELF-E (1-138) = NELF-B;NELF-E (1-138) (Homo sapiens;Homo sapiens, UniProt Q8WX92;P18615 49-628;1-138, |); assay: fluorescence anisotropy; yeast tRNA 5 ug/ml; NELF-AC: 30 mM NaCl, 3 mM MgCl2, 10 mM Na-HEPES pH 7.4, 2 mM DTT, 50 ug/ml BSA; other NELF complexes: same with 60 mM NaCl and 5 ug/ml yeast tRNA; 10 nM nucleic acid, incubated at RT, read at 30 C; conditions: protein: recombinant;recombinant, tags: N-His6-TEV in NELF-B and NELF-BE constructs (cleaved);none stated, copies: 1;1, label: 5'-FAM
Sequence of NELF-B;NELF-E (1-138) (Q8WX92 whole entry, chain 1 of 2): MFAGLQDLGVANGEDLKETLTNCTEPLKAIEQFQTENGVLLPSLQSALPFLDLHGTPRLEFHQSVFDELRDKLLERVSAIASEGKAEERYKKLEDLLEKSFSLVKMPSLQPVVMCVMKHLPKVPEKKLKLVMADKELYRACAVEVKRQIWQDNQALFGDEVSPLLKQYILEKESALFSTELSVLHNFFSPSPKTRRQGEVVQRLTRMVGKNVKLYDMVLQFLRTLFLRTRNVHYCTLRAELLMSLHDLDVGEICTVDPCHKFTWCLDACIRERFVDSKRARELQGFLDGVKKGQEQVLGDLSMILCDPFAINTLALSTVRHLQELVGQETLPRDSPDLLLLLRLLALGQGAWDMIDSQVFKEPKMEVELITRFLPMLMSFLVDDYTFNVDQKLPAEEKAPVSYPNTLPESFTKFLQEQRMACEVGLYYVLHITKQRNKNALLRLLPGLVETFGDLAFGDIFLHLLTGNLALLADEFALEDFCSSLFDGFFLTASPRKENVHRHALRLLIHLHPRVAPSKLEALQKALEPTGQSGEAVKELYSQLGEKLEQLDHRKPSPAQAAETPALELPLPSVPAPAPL
Sequence of NELF-B;NELF-E (1-138) (P18615 1-138, chain 2 of 2): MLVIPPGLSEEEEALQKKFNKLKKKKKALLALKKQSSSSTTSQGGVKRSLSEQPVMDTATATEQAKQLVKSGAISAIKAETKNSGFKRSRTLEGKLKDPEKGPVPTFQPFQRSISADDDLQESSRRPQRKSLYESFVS

[1] = target: NELF-A full-length;NELF-B;NELF-D patch mutant (called NELF-C);NELF-E (1-138) (Homo sapiens;Homo sapiens;Homo …, UniProt Q9H3P2;Q8WX92;Q8IXH7-4;P18615 1-528;49-628;1-581;1-138, ||R282Q;K306M;K362M;K363M;K365M;K375M;K379M;R410Q;R497Q|); assay: as above; conditions: protein: recombinant;recombinant;recombinant;recombinant; copies: 1;1;1;1; label: 5'-FAM; single strand
[2] = target: T1, NELF-A full-length;NELF-B;NELF-D patch mutant (called NELF-C) (Homo sapiens;Homo sapiens;Homo sapiens, UniProt Q9H3P2;Q8WX92;Q8IXH7-4 1-528;49-628;1-581, ||R282Q;K306M;K362M;K363M;K365M;K375M;K379M;R410Q;R497Q); assay: as above; conditions: protein: recombinant;recombinant;recombinant; tags: none stated;N-His6-TEV in NELF-B and NELF-BE constructs (cleaved);N-His6-TEV, cleaved; copies: 1;1;1; label: 5'-FAM; single strand
[3] = target: NELF-A full-length;NELF-B;NELF-D (called NELF-C) (Homo sapiens;Homo sapiens;Homo sapiens, UniProt Q9H3P2;Q8WX92;Q8IXH7-4 1-528;49-628;1-581, ||); assay: as above; conditions: protein: recombinant;recombinant;recombinant, tags: none stated;N-His6-TEV in NELF-B and NELF-BE constructs (cleaved);N-His6-TEV, cleaved, copies: 1;1;1, label: 5'-FAM
Sequence of NELF-A full-length;NELF-B;NELF-D (called NELF-C) (Q9H3P2 whole entry, chain 1 of 3): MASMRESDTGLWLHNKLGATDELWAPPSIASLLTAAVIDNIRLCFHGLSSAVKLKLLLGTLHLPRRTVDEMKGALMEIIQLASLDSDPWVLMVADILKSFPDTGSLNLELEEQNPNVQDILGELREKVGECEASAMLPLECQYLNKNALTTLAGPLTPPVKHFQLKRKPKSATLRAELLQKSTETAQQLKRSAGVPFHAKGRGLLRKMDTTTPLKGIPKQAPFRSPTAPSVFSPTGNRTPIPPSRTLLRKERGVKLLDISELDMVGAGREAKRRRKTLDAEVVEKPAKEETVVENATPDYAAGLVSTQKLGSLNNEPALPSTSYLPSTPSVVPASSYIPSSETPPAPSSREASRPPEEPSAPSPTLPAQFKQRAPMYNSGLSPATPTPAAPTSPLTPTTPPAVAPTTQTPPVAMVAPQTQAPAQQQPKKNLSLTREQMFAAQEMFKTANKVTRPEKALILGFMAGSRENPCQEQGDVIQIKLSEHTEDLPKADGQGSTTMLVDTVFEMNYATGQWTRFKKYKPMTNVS
Sequence of NELF-A full-length;NELF-B;NELF-D (called NELF-C) (Q8WX92 whole entry, chain 2 of 3): as the sequence (Q8WX92 whole entry, chain 1 of 2) above
Sequence of NELF-A full-length;NELF-B;NELF-D (called NELF-C) (Q8IXH7 10-590, chain 3 of 3): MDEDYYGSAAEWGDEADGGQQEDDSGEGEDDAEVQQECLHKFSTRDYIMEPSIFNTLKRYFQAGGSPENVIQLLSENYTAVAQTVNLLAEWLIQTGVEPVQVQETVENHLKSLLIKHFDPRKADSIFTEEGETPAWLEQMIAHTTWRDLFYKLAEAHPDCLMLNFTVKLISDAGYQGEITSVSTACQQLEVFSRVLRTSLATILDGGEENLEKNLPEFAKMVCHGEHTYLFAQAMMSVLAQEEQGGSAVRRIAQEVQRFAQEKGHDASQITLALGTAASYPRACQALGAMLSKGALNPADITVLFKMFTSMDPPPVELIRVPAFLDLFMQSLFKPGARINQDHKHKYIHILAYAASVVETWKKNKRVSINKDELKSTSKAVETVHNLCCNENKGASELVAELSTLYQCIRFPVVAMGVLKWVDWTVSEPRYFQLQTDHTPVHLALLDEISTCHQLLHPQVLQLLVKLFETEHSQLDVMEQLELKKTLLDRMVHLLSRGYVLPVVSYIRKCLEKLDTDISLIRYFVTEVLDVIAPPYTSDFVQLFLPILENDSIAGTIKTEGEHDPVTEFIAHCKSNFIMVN

[4] = target: NELF-A full-length;NELF-B;NELF-D (called NELF-C);NELF-E (1-138) (Homo sapiens;Homo sapiens;Homo …, UniProt Q9H3P2;Q8WX92;Q8IXH7-4;P18615 1-528;49-628;1-581;1-138, |||); assay: as above; conditions: protein: recombinant;recombinant;recombinant;recombinant, copies: 1;1;1;1, label: 5'-FAM
Sequence of NELF-A full-length;NELF-B;NELF-D (called NELF-C);NELF-E (1-138) (Q9H3P2 whole entry, chain 1 of 4): as the sequence (Q9H3P2 whole entry, chain 1 of 3) above
Sequence of NELF-A full-length;NELF-B;NELF-D (called NELF-C);NELF-E (1-138) (Q8WX92 whole entry, chain 2 of 4): as the sequence (Q8WX92 whole entry, chain 1 of 2) above
Sequence of NELF-A full-length;NELF-B;NELF-D (called NELF-C);NELF-E (1-138) (Q8IXH7 10-590, chain 3 of 4): as the sequence (Q8IXH7 10-590, chain 3 of 3) above
Sequence of NELF-A full-length;NELF-B;NELF-D (called NELF-C);NELF-E (1-138) (P18615 1-138, chain 4 of 4): as the sequence (P18615 1-138, chain 2 of 2) above

NELF-B = NELF-B (Homo sapiens, UniProt Q8WX92 49-628); assay: as above; conditions: protein: recombinant; tags: N-His6-TEV in NELF-B and NELF-BE constructs (cleaved); label: 5'-FAM; single strand
[5] = target: NELF-A (6-188);NELF-C (183-590) (Homo sapiens;Homo sapiens, UniProt Q9H3P2;Q8IXH7 6-188;183-590, |); assay: fluorescence anisotropy; NELF-AC: 30 mM NaCl, 3 mM MgCl2, 10 mM Na-HEPES pH 7.4, 2 mM DTT, 50 ug/ml BSA; other NELF complexes: same with 60 mM NaCl and 5 ug/ml yeast tRNA; 10 nM nucleic acid, incubated at RT, read at 30 C; conditions: protein: recombinant;recombinant, tags: N-His6 removed by thrombin;none, copies: 1;1
Sequence of NELF-A (6-188);NELF-C (183-590) (Q9H3P2 6-188, chain 1 of 2): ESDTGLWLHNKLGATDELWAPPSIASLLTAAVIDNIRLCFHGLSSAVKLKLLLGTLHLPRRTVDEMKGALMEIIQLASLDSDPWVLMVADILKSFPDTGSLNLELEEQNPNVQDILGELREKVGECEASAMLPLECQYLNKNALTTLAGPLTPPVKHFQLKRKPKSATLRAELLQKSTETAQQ
Sequence of NELF-A (6-188);NELF-C (183-590) (Q8IXH7 183-590, chain 2 of 2): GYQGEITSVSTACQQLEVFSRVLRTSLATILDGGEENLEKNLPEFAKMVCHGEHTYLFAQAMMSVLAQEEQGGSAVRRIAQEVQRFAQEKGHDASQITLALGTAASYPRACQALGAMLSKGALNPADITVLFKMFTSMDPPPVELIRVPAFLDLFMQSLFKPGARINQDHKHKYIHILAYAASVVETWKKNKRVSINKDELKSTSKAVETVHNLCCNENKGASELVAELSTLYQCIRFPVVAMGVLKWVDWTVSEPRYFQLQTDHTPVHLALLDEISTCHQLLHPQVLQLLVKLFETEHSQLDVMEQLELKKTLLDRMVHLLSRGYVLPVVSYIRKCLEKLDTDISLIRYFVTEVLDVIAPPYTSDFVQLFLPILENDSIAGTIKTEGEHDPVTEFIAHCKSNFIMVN

[6] = target: T2, NELF-A (6-188) patches 1,4;NELF-C (183-590) patches 1,2,4 (Homo sapiens;Homo sapiens, UniProt Q9H3P2;Q8IXH7 6-188;183-590, R65Q;R66Q;K146M;K161M;K168M;R175Q|R291Q;K315M;K371M;K372M;K374M;R419Q;R506Q); assay: fluorescence anisotropy; text says impaired; Bmax printed 12.92; NELF-AC: 30 mM NaCl, 3 mM MgCl2, 10 mM Na-HEPES pH 7.4, 2 mM DTT, 50 ug/ml BSA; other NELF complexes: same with 60 mM NaCl and 5 ug/ml yeast tRNA; 10 nM nucleic acid, incubated at RT, read at 30 C; conditions: protein: recombinant;recombinant; tags: N-His6 removed by thrombin;none; copies: 1;1; label: 5'-FAM; single strand
[7] = target: NELF-A full-length;NELF-B;NELF-D (called NELF-C);NELF-E full-length (Homo sapiens;Homo sapiens;Homo …, UniProt Q9H3P2;Q8WX92;Q8IXH7-4;P18615 1-528;49-628;1-581;1-380, |||); assay: fluorescence anisotropy; yeast tRNA 5 ug/ml; NELF-AC: 30 mM NaCl, 3 mM MgCl2, 10 mM Na-HEPES pH 7.4, 2 mM DTT, 50 ug/ml BSA; other NELF complexes: same with 60 mM NaCl and 5 ug/ml yeast tRNA; 10 nM nucleic acid, incubated at RT, read at 30 C; conditions: protein: recombinant;recombinant;recombinant;recombinant; copies: 1;1;1;1; label: 5'-FAM; hairpin
[8] = target: NELF-A (6-188) patches 1,4;NELF-C (183-590) patches 1,2,3,4 (Homo sapiens;Homo sapiens, UniProt Q9H3P2;Q8IXH7 6-188;183-590, R65Q;R66Q;K146M;K161M;K168M;R175Q|R291Q;K315M;K371M;K372M;K374M;K384M;K388M;R419 …); assay: fluorescence anisotropy; NELF-AC: 30 mM NaCl, 3 mM MgCl2, 10 mM Na-HEPES pH 7.4, 2 mM DTT, 50 ug/ml BSA; other NELF complexes: same with 60 mM NaCl and 5 ug/ml yeast tRNA; 10 nM nucleic acid, incubated at RT, read at 30 C; conditions: protein: recombinant;recombinant; tags: N-His6 removed by thrombin;none; copies: 1;1; label: 5'-FAM; single strand
[9] = target: T2, NELF-A (6-188) patches 1,4;NELF-C …; assay: as above; conditions: protein: recombinant;recombinant; tags: N-His6 removed by thrombin;none; copies: 1;1; label: 5'-FAM; single strand
[10] = target: T1, NELF-A full-length;NELF-B;NELF-D patch …; assay: fluorescence anisotropy; yeast tRNA 5 ug/ml; error as printed; NELF-AC: 30 mM NaCl, 3 mM MgCl2, 10 mM Na-HEPES pH 7.4, 2 mM DTT, 50 ug/ml BSA; other NELF complexes: same with 60 mM NaCl and 5 ug/ml yeast tRNA; 10 nM nucleic acid, incubated at RT, read at 30 C; conditions: protein: recombinant;recombinant;recombinant, tags: none stated;N-His6-TEV in NELF-B and NELF-BE constructs (cleaved);N-His6-TEV, copies: 1;1;1, label: 5'-FAM, single strand

Work on AAGGGGAGCGGGGGAGGATAATAGG (ssDNA) [60% GC ssDNA] yielded a Kd (NELF-B;NELF-E (1-138); single strand) of 17.4 ± 3.5 µM, a Kd [1] of 0.3 ± 0.08 µM and a Kd [2] of 0.77 ± 0.02 µM. The Kd ([3]; single strand) was 0.1 ± 0.03 µM, the Kd ([4]; single strand) was 0.03 ± 0.01 µM and the Kd (NELF-B) was 6.31 ± 1.92 µM. For the same binder, the Kd ([5]; label: 5'-FAM, single strand) was 17.5 ± 1.33 µM and the Kd [6] was 12.9 ± 2.28 µM.

AAGACTGAGCCGGCGGCCGC (ssDNA) [c-fos ssDNA]: binds ([5]; label: 5'-FAM, single strand).

In the case of CCAGAUCUGAGCCUGGGAGCUCUCUGG (structured_RNA) [HIV-1 TAR RNA stem loop], the Kd (NELF-B;NELF-E (1-138); hairpin) is reported as 5.59 ± 1.05 µM, the Kd [7] is reported as 0.146 ± 0.03 µM and the Kd ([3]; hairpin) is reported as 1.32 ± 0.18 µM. The Kd ([4]; hairpin) was 0.869 ± 0.14 µM.

For AAGGGGAGCGGGGGAGGAUAAUAGG (ssRNA) [60% GC ssRNA], the Kd (NELF-B;NELF-E (1-138); single strand) was 2.83 ± 1 µM, the Kd [1] was 0.094 ± 0.02 µM and the Kd ([3]; single strand) was 0.074 ± 0.014 µM. For the same binder, the Kd ([4]; single strand) was 0.03 ± 0.007 µM, the Kd (NELF-B) was 8.5 ± 1.59 µM and the Kd [8] was 14.3 ± 2.67 µM. For the same binder, the Kd [9] was 14.3 ± 2.41 µM, the Kd ([5]; label: 5'-FAM, single strand) was 6.87 ± 0.46 µM and the Kd [10] was 0.29 µM.

ACCCCACAACUAAAAAAUCCCAACC (ssRNA) [44% GC ssRNA]: no binding ([5]; label: 5'-FAM, single strand).

In the case of AGCGGCCAGGCCAGCCUCGGAGCCA (ssRNA) [junB ssRNA], the Kd ([5]; label: 5'-FAM, single strand) is reported as roughly 8 µM.

B1: 60% GC DNA-RNA hybrid (DNA:RNA)
DNA: AAGGGGAGCGGGGGAGGATAATAGG
RNA: CCUAUUAUCCUCCCCCGCUCCCCUU
B1: no binding [5].

B2: 60% GC dsDNA (dsDNA)
DNA 1: AAGGGGAGCGGGGGAGGATAATAGG
DNA 2: CCTATTATCCTCCCCCGCTCCCCTT
B2: no binding ([5]; label: 5'-FAM).
